This note sets out measurements from patent US20100260668A1 (published 2010).

In general, Kd refers to the constant that tells how readily two partners part at equilibrium. Usually koff stands for the rate constant with which the complex falls apart. A word on the kon: it is the second-order rate constant of association. As usually defined, the EC50 is the concentration needed to bring the measured effect to its halfway point. Read a high EC50 as a less potent agent.

“And” between values parts separate entries of the source, which are not always exact repeats. Identical values can stand only once.

Assay [1] has as its target T1, ErbB3 (ErbB3/FC Chimera-His tag) (UniProt P21860 20-643, limits assumed).
T1 construct: extracellular domain
Put plainly: SPR (Biacore); parent antibody. In general terms: Surface plasmon resonance follows binding to a sensor surface in real time, without labels.
Description: (§1) The BIACORE assay (Biacore, Inc, Piscataway, N.J.) determines the affinity of antibodies or DVD-Ig with kinetic measurements of on-rate and off-rate constants. Binding of antibodies or DVD-Ig to a target antigen (for example, a purified recombinant target antigen) is determined by surface plasmon resonance-based measurements with a Biacore® 1000 or 3000 instrument (Biacore® AB, Uppsala, Sweden) using running HBS-EP (10 mM HEPES [pH 7.4], 150 mM NaCl, 3 mM EDTA, and 0.005% surfactant P20) at 25° C. […] For example, approximately 5000 RU of goat anti-mouse IgG, (Fcγ), fragment specific polyclonal antibody (Pierce Biotechnology Inc, Rockford, Ill.) diluted in 10 mM sodium acetate (pH 4.5) is directly immobilized across a CM5 research grade biosensor chip using a standard amine coupling kit according to manufacturer's instructions and procedures at 25 μg/ml. Unreacted moieties on the biosensor surface are blocked with ethanolamine. Modified carboxymethyl dextran surface in flowcell 2 and 4 is used as a reaction surface. Unmodified carboxymethyl dextran without goat anti-mouse IgG in flow cell 1 and 3 is used as the reference surface. For kinetic analysis, rate equations derived from the 1:1 Langmuir binding model are fitted simultaneously to association and dissociation phases of all eight injections (using global fit analysis) with the use of Biaevaluation 4.0.1 software. Purified antibodies or DVD-Ig are diluted in HEPES-buffered saline for capture across goat anti-mouse IgG specific reaction surfaces. Antibodies or DVD-Ig to be captured as a ligand (25 μg/ml) are injected over reaction matrices at a flow rate of 5 μl/min. The association and dissociation rate constants, kₒₙ (M⁻¹s⁻¹) and koff (s⁻¹) are determined under a continuous flow rate of 25 μl/min. Rate constants are derived by making kinetic binding measurements at different antigen concentrations ranging from 10-200 nM. The equilibrium dissociation constant (M) of the reaction between antibodies or DVD-Igs and the target antigen is then calculated from the kinetic rate constants by the following formula: KD=koff/kₒₙ. Binding is recorded as a function of time and kinetic rate constants are calculated.

For the next assay, the target named is T2, IGF-2 (UniProt P01344 25-91).
T2 construct: Bought reagent
Put plainly: Biacore SPR.

The next assay concerns the target T3, DLL ECD His tag (UniProt Q9NR61 27-529, limits assumed).
T3 construct: extracellular domain; Bought reagent; also called DLL4; DLL-4; not shown: His tag
Put plainly: Biacore SPR.

The target in a further assay is T4, HGF (UniProt P14210 32-728).
T4 construct: Bought reagent
T4 sequence (P14210 32-728 limits assumed): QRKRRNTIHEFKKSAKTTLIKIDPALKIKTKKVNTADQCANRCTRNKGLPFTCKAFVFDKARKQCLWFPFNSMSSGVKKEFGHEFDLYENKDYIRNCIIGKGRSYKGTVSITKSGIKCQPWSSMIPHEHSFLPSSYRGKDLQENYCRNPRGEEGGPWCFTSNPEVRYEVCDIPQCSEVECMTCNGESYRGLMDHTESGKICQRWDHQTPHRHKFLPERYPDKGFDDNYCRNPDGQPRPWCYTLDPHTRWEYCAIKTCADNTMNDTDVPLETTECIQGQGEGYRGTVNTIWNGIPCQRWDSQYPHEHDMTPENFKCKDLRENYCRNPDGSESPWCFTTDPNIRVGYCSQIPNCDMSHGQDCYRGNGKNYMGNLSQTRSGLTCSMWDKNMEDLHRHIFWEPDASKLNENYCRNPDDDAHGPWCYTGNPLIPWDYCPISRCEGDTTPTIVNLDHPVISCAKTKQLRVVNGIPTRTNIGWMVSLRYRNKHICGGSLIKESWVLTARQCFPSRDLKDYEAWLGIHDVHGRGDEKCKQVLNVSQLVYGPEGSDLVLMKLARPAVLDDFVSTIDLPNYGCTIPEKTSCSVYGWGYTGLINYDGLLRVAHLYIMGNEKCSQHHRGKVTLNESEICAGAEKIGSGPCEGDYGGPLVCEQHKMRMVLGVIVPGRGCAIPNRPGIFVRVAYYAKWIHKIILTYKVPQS
Put plainly: Biacore SPR.

In the next assay the target is T5, MSP Receptor ECD-His tag (UniProt Q04912 25-957, limits assumed).
T5 construct: extracellular domain; Bought reagent; also called RON; not shown: His tag
Put plainly: Biacore SPR.

In assay [2] the target is human DLL4 extracellular domain (human, UniProt Q9NR61 27-529). Put plainly: cell-based or functional assay.
In assay [3] the target is recombinant human VEGF165 (human, UniProt P15692-4 27-191). In words: cell-based or functional assay.
Sequence of recombinant human VEGF165 (P15692 other isoform, or with tags, fused parts or gaps limits assumed): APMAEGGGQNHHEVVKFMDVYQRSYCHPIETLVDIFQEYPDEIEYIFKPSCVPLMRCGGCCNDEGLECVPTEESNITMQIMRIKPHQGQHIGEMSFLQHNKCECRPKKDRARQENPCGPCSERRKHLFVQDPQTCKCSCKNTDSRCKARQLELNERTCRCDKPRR
The target in assay [4] is T6, DLL4 ECD/His tag (R&D 1506-D4-050) (UniProt Q9NR61 27-529).
T6 construct: extracellular domain; Bought antigen coated on the ELISA plate; not shown: His tag
In words: direct bind ELISA, DLL4 on plate; DLL4 VD C-term.; HC Short, LC Short.

The target of a further assay is T7, Placental GF (UniProt P49763-2 21-149, limits assumed).
T7 construct: Bought reagent; also called PlGF; PLGF
T7 sequence (looked up): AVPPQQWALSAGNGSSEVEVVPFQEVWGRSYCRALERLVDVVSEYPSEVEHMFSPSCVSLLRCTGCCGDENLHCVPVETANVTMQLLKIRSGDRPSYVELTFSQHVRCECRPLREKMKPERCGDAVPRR
Put plainly: Biacore SPR.

Description for DLL ECD His tag: as §1
Description for HGF: as §1
Description for IGF-2: as §1
Description for MSP Receptor ECD-His tag: as §1
Description for Placental GF: as §1

B1: AB062 (antibody, human IgG1, kappa, V domains shown)
VH: QVQLQQWGAGLLKPSETLSLTCAVYGGSFSGYYWSWIRQPPGKGLEWIGEINHSGSTNYNPSLKSRVTISVETSKNQFSLKLSSVTAADTAVYYCARDKWTWYFDLWGRGTLVTVSS
VL: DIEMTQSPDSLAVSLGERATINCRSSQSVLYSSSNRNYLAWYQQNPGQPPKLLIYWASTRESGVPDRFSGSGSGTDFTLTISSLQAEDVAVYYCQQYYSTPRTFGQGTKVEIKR
notes: also called AB062VH; AB062VL
Regarding B1, in [1], the Kd stood at 1.36 nM, the koff was 0.000117 s⁻¹ and the kon was 86600 M⁻¹ s⁻¹.

B2: DVD041 (bispecific antibody, human IgG1, lambda)
heavy: not shown
light: DIQMTQSPSSLSASVGDRVTITCSASQDISNYLNWYQQKPGKAPKVLIYFTSSLHSGVPSRFSGSGSGTDFTLTISSLQPEDFATYYCQQYSTVPWTFGQGTKVEIKRTVAAPQSVLTQPPSVSAAPGQKVTISCSGSSSNIENNHVSWYQQLPGTAPKLLIYDNNKRPSGIPDRFSGSKSGTSATLGITGLQTGDEADYYCETWDTSLSAGRVFGGGTKLTVLGQPKAAPSVTLFPPSSEELQANKATLVCLISDFYPGAVTVAWKADSSPVKAGVETTTPSKQSNNKYAASSYLSLTPEQWKSHRSYSCQVTHEGSTVEKTVAPTECS
notes: N-terminal VD VEGF, C-terminal VD IGF1,2; also called DVD041H; DVD041L
For B2, in the assay with IGF-2, the dissociation constant (Kd) is less than 0.0124 nM, the koff is less than 1e-06 s⁻¹ and the kon is 80900 M⁻¹ s⁻¹.

B3: AB015 (antibody, human IgG1, kappa)
heavy: not shown
light: DIQMTQSPSSLSASVGDRVTITCRASQDVSTAVAWYQQKPGKAPKLLIYSASFLYSGVPSRFSGSGSGTDFTLTISSLQPEDFATTYYCQQSYTGTVTFGQGTKVEIKRTVAAPSVFIFPPSDEQLKSGTASVVCLLNNFYPREAKVQWKVDNALQSGNSQESVTEQDSKDSTYSLSSTLTLSKADYEKHKVYACEVTHQGLSSPVTKSFNRGEC
In the case of B3, in the assay with DLL ECD His tag, the Kd was found to be 0.414 nM, the koff was found to be 0.000166 s⁻¹ and the kon was determined as 400000 M⁻¹ s⁻¹.

B4: DVD033 (bispecific antibody, human IgG1, kappa)
heavy: not shown
light: DVVMTQSPLSLPVTPGEPASISCRSSQSLLHSNGFNYVDWYLQKPGQSPHLLIYFGSYRASGVPDRFSGSGSGTDFTLKISRVEAEDVGVYYCMQALQTPPWTFGQGTKVEIRRTVAAPDIQMTQSPSSVSASVGDRVTITCRASQGISSWLAWYQQKPGKAPNLLIYEASSLQSGVPSRFGGSGSGTDFTLTISSLQPEDFATYYCQQANGFPWTFGQGTKVEIKRTVAAPSVFIFPPSDEQLKSGTASVVCLLNNFYPREAKVQWKVDNALQSGNSQESVTEQDSKDSTYSLSSTLTLSKADYEKHKVYACEVTHQGLSSPVTKSFNRGEC
notes: N-terminal VD RON, C-terminal VD HGF; also called DVD033H; DVD033L
In the assay with HGF, B4 displayed a Kd of 0.31 nM, a koff of 9.2e-05 s⁻¹ and a kon of 297000 M⁻¹ s⁻¹. In the assay with MSP Receptor ECD-His tag, binding was put at a Kd of 7.6 nM, the koff was 0.00118 s⁻¹ and the kon is 156000 M⁻¹ s⁻¹.

B5: DVD043 (bispecific antibody, human IgG1, kappa)
heavy: not shown
light: DIQMTQSPSSLSASVGDRVTITCSASQDISNYLNWYQQKPGKAPKVLIYFTSSLHSGVPSRFSGSGSGTDFTLTISSLQPEDFATYYCQQYSTVPWTFGQGTKVEIKRTVAAPDIQMTQSPSSLSASVGDRVTITCRASQDVSTAVAWYQQKPGKAPKLLIYSASFLYSGVPSRFSGSGSGTDFTLTISSLQPEDFATTYYCQQSYTGTVTFGQGTKVEIKRTVAAPSVFIFPPSDEQLKSGTASVVCLLNNFYPREAKVQWKVDNALQSGNSQESVTEQDSKDSTYSLSSTLTLSKADYEKHKVYACEVTHQGLSSPVTKSFNRGEC
Consider B5, for which, in [2], the “Soluble Flt1 Assay, % of Neutralization @ 9.2 nM Ab” value came out at 1.1%; the “Soluble Flt1 Assay, % of Neutralization @ 27.7 nM Ab” value stood at 50.3%; the “Soluble Flt1 Assay, % of Neutralization @ 83.3 nM Ab” value amounted to 57.9%. For the same molecule, in [3], the “% inhibition of HUVEC proliferation at 0.67 nM” value was -22%, the “% inhibition of HUVEC proliferation at 6.7 nM” value worked out at 51% and the “% inhibition of HUVEC proliferation at 67 nM” value turned out to be 89%.

B6: DVD043 (bispecific antibody, human IgG1, kappa)
heavy: not shown
light: B5 light
notes: DVD-Ig; HC short, LC short linker; also called DVD043H; DVD043L
B6: in assay [4], the EC50 is 0.67 nM.

B7: DVD043 (bispecific antibody, human IgG1, kappa)
heavy: not shown
light: B5 light
notes: N-terminal VD VEGF, C-terminal VD DLL4; also called DVD043H; DVD043L
As for B7, in the assay with DLL ECD His tag, the equilibrium dissociation constant (Kd) came to 2.32 nM, the dissociation rate constant (koff) turned out to be 0.000217 s⁻¹ and the kon is 93700 M⁻¹ s⁻¹.

B8: AB005 (antibody, human IgG1, kappa, V domains shown)
VH: EVQLVQSGGGLVKPGGSLRLSCAASGFTFSSYAMHWVRQAPGKGLEWVAVISYDGSNKYYADSVKGRFTISRDNSKNTLYLQMNSLRAEDTAVYYCARFSGWPNNYYYYGMDVWGQGTTVTVSS
VL: DVVMTQSPLSLPVTPGEPASISCRSSQSLLHSNGFNYVDWYLQKPGQSPHLLIYFGSYRASGVPDRFSGSGSGTDFTLKISRVEAEDVGVYYCMQALQTPPWTFGQGTKVEIRR
As for B8, in the assay with MSP Receptor ECD-His tag, the Kd was 20.2 nM and 20.1 nM; the dissociation rate constant (koff) is 0.000739 s⁻¹; the kon came to 36600 M⁻¹ s⁻¹.

B9: DVD258 (bispecific antibody, human IgG1, kappa)
heavy: not shown
light: DIVLTQSPDSLAVSLGERVTMNCKSSQSLLNSGMRKSFLAWYQQKPGQSPKLLIYWASTRESGVPDRFTGSGSGTDFTLTISSVQAEDVAVYYCKQSYHLFTFGSGTKLEIKRTVAAPDIQMTQSPSSLSASVGDRVTITCRASQDVSTAVAWYQQKPGKAPKLLIYSASFLYSGVPSRFSGSGSGTDFTLTISSLQPEDFATTYYCQQSYTGTVTFGQGTKVEIKRTVAAPSVFIFPPSDEQLKSGTASVVCLLNNFYPREAKVQWKVDNALQSGNSQESVTEQDSKDSTYSLSSTLTLSKADYEKHKVYACEVTHQGLSSPVTKSFNRGEC
notes: N-terminal VD PlGF, C-terminal VD DLL4; also called VD258H; VD258L
Take B9: in the assay with Placental GF, the dissociation constant (Kd) was less than 0.254 nM, the koff was found to be 0.00254 s⁻¹ and the kon was more than 1e+07 M⁻¹ s⁻¹.

B10: DVD468 (bispecific antibody, human IgG1, kappa)
heavy: not shown
light: DIQMTQSPSSLSASVGDRVTITCRASQVIRRSLAWYQQKPGKAPKLLIYAASNLASGVPSRFSGSGSGTDFTLTISSLQPEDFATYYCQQSNTSPLTFGQGTKVEIKRTVAAPDIQMTQSPSSLSASVGDRVTITCRASQDVSTAVAWYQQKPGKAPKLLIYSASFLYSGVPSRFSGSGSGTDFTLTISSLQPEDFATTYYCQQSYTGTVTFGQGTKVEIKRTVAAPSVFIFPPSDEQLKSGTASVVCLLNNFYPREAKVQWKVDNALQSGNSQESVTEQDSKDSTYSLSSTLTLSKADYEKHKVYACEVTHQGLSSPVTKSFNRGEC
notes: DVD-Ig; outer AB071 (VEGF), inner AB015 (DLL4); HC short, LC short linker; also called DVD468H; DVD468L
With B10, in assay [4], a half-maximal response (EC50) required 2.28 nM. In other words, the single-digit nanomolar range.

B11: DVD512 (bispecific antibody, human IgG1, lambda, L234A L235A)
heavy: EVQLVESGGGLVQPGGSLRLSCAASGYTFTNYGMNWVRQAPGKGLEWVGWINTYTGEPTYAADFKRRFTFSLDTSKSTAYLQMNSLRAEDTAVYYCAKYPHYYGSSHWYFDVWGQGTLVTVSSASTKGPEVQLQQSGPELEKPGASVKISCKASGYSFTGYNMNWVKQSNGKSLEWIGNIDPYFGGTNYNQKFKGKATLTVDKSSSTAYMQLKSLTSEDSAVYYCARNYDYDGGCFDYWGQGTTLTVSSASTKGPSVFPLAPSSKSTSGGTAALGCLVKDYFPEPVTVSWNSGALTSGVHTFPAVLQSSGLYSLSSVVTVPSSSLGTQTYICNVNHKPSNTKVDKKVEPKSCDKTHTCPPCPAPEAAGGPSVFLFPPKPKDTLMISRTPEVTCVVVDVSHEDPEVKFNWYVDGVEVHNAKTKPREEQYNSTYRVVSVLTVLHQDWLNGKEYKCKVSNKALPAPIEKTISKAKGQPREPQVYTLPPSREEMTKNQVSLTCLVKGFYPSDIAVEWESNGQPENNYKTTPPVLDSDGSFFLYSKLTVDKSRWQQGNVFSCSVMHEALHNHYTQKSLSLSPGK
light: DIQMTQSPSSLSASVGDRVTITCSASQDISNYLNWYQQKPGKAPKVLIYFTSSLHSGVPSRFSGSGSGTDFTLTISSLQPEDFATYYCQQYSTVPWTFGQGTKVEIKRTVAAPQAVVTQESALTTSPGETVTLTCRSSTGAVTTSNYANWVQEKPDHLFTGLIGGTNNRAPGVPARFSGSLIGDKAALTITGAQTEDEAIYFCALWYSNHWVFGGGTKLTVLGQPKAAPSVTLFPPSSEELQANKATLVCLISDFYPGAVTVAWKADSSPVKAGVETTTPSKQSNNKYAASSYLSLTPEQWKSHRSYSCQVTHEGSTVEKTVAPTECS
notes: DVD-Ig; HC short, LC short linker; also called DVD512H; DVD512L
In [4], B11 registered an EC50 of 1.71 nM.

B12: DVD446 (bispecific antibody, human IgG1, kappa)
heavy: not shown
light: DIQMTQSPSSLSASVGDRVTITCRASQVIRRSLAWYQQKPGKAPKLLIYAASNLASGVPSRFSGSGSGTDFTLTISSLQPEDFATYYCQQSNTSPLTFGQGTKVEIKRTVAAPDIVMTQSPDSLAVSLGERATISCRASESVDNYGISFMKWFQQKPGQPPKLLIYAASNQGSGVPDRFSGSGSGTDFTLTISSLQAEDVAVYYCQQSKEVPWTFGGGTKVEIKRTVAAPSVFIFPPSDEQLKSGTASVVCLLNNFYPREAKVQWKVDNALQSGNSQESVTEQDSKDSTYSLSSTLTLSKADYEKHKVYACEVTHQGLSSPVTKSFNRGEC
notes: DVD-Ig; outer AB071 (VEGF), inner AB069 (DLL4); HC short, LC short linker; also called DVD446H; DVD446L
Take B12: the EC50 in assay [4] was found to be 13.9 nM.

B13: AB063 (antibody, human IgG1, kappa, V domains shown)
VH: EVQLVESGGGLVQPGGSLRLSCAASGFTFSIYSMNWVRQAPGKGLEWVSYISSSSSTIYYADSVKGRFTISRDNAKNSLYLQMNSLRDEDTAVYYCARDRGDFDAFDIWGQGTMVTVSS
VL: DIQMTQSPSSLSASVGDRVTITCQASQDITNYLNWYQQKPGKAPKLLIYDASNLETGVPSRFSGSGSGTDFTFTISSLQPEDIATYNCQQCENFPITFGQGTRLEIKR
notes: also called AB063VH; AB063VL
With B13, in [1], the Kd came to 0.15 nM, the koff is 0.000175 s⁻¹ and the kon stood at 1.17e+06 M⁻¹ s⁻¹.

B14: AB047 (antibody, human IgG1, kappa, V domains shown)
VH: QVQLQQSGAELVKPGASVKISCKASGYTFTDYYINWVKLAPGQGLEWIGWIYPGSGNTKYNEKFKGKATLTIDTSSSTAYMQLSSLTSEDTAVYFCVRDSPFFDYWGQGTLLTVSS
VL: DIVLTQSPDSLAVSLGERVTMNCKSSQSLLNSGMRKSFLAWYQQKPGQSPKLLIYWASTRESGVPDRFTGSGSGTDFTLTISSVQAEDVAVYYCKQSYHLFTFGSGTKLEIKR
As to B14, in the assay with Placental GF, the equilibrium dissociation constant (Kd) came to 0.0284 nM, the koff was 0.000108 s⁻¹ and the kon amounted to 3.8e+06 M⁻¹ s⁻¹.
